The labels stand for the following.
B1: Numb-related protein 1 (Caenorhabditis elegans), Q9XTY6 (parent)
chain: MSASQGNVFTRGLSRISRRKKKTKSIQNSLVSEQQPSFDAAIVPMPIPNDKSSIFSKGMDRLRRSLRLPKKRRDRSHDRHLSPDVTGGSKTEQWQPDEGAVRTGTCCFNVKYLGSVEVYESRGMQVCEGALKSLKASRRKPVKAVLYVSGDGLRVVDQGNSRGLLVDQTIEKVSFCAPDRQTDKGFAYICRDGASRRWMCHGFLATKETGERLSHAVGCAFSICLEKKKRRDEETAQVNVQSAQESTSSTPPKDIFHPNWEDNTSEGTSTQNPSNSRSNLAYQSFRKHVSIEDRYLDPQSVIINEVPASNHMDEIRRISKPRPTGNPALFLRQGSLRAPPDMPSSSDQFKRNMSLRTVSNNPTERSPEKKSFGTQLYNEPIYEGDEDPLGLGITPPVVTKTSGSLSNNGLDGINLNWKSIPAPVHQMQQHNANGDFVAAWPQNTIEKPTVGPLDKLQKQFEDIKLISISSGENTPTTRSKADEWLDDVLRVSMSMSPTSPSSDPPSTSSYSVLPKSGPPPAHAPPPLPVRQAVSNGSPSIYQQQLQQANSTRNSPAGINWNSSPNPMKISQPPAKPVDPFDVQWSRLAVNNTH
partner: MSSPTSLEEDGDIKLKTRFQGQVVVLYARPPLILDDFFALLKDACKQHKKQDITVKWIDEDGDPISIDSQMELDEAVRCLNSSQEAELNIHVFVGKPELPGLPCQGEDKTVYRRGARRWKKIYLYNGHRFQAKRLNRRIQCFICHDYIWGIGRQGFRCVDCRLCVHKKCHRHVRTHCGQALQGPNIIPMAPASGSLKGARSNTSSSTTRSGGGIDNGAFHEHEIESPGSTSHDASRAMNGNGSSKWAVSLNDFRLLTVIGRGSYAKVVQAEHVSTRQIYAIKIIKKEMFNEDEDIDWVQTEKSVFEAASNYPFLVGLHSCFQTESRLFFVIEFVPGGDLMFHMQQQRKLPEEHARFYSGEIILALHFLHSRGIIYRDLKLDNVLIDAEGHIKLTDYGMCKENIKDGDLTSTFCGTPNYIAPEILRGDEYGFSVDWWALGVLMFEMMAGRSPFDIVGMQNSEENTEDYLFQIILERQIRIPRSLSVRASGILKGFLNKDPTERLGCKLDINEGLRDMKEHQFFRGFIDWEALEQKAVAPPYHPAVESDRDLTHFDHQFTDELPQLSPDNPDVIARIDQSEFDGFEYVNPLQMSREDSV

Here are results for 2 variants from IntAct's records for PubMed 11134024.

Variants of B1 are the subject of one assay. To be noted: with kpc3_caeel pkc-3, Q19266.
Turning to MSASQGNVFTRGLSRISRRKKKTKSIQNSLVSEQQPSFDAAIVPMPIPNDKSSIFSKGMDRLRRSLRLPKKRRDRSHDRHLSPDVTGGSKTEQWQPDEGAVRTGTCCFNVKYLGSVEVYESRGMQVCEGALKSLKASRRKPVKAVLYVSGDGLRVVDQGNSRGLLVDQTIEKVSFCAPDRQTDKGFAYICRDGASRRWMCHGFLATKETGERLSHAVGCALSICLEKKKRRDEETAQVNVQSAQESTSSTPPKDIFHPNWEDNTSEGTSTQNPSNSRSNLAYQSFRKHVSIEDRYLDPQSVIINEVPASNHMDEIRRISKPRPTGNPALFLRQGSLRAPPDMPSSSDQFKRNMSLRTVSNNPTERSPEKKSFGTQLYNEPIYEGDEDPLGLGITPPVVTKTSGSLSNNGLDGINLNWKSIPAPVHQMQQHNANGDFVAAWPQNTIEKPTVGPLDKLQKQFEDIKLISISSGENTPTTRSKADEWLDDVLRVSMSMSPTSPSSDPPSTSSYSVLPKSGPPPAHAPPPLPVRQAVSNGSPSIYQQQLQQANSTRNSPAGINWNSSPNPMKISQPPAKPVDPFDVQWSRLAVNNTH [F221L], the “effect of a mutation on the interaction” value was “decreasing interaction”.

The variants in the next assay derive from B1. The following applies: with kpc3_caeel pkc-3, Q19266. The source holds these as a separate data set.
As for MSASQGNVFTRGLSRISRRKKKTKSIQNSLVSEQQPSFDAAIVPMPIPNDKSSIFSKGMDRLRRSLRLPKKRRDRSHDRHLSPDVTGGSKTEQWQPDEGAVRTGTCCFNVKYLGSVEVYESRGMQVCEGALKSLKASRRKPVKAVLYVSGDGLRVVDQGNSRGLLVDQTIEKVSFCAPDRQTDKGFAYICRDGASRRWMCHGFLATKETGERLSHAVGCALSICLEKKKRRDEETAQVNVQSAQESTSSTPPKDIFHPNWEDNTSEGTSTQNPSNSRSNLAYQSFRKHVSIEDRYLDPQSVIINEVPASNHMDEIRRISKPRPTGNPALFLRQGSLRAPPDMPSSSDQFKRNMSLRTVSNNPTERSPEKKSFGTQLYNEPIYEGDEDPLGLGITPPVVTKTSGSLSNNGLDGINLNWKSIPAPVHQMQQHNANGDFVAAWPQNTIEKPTVGPLDKLQKQFEDIKLISISSGENTPTTRSKADEWLDDVLRVSMSMSPTSPSSDPPSTSSYSVLPKSGPPPAHAPPPLPVRQAVSNGSPSIYQQQLQQANSTRNSPAGINWNSSPNPMKISQPPAKPVDPFDVQWSRLAVNNTH [F221L], the “effect of a mutation on the interaction” value was “decreasing interaction”.
In the case of MSASQGNVFTRGLSRISRRKKKTKSIQNSLVSEQQPSFDAAIVPMPIPNDKSSIFSKGMDRLRRSLRLPKKRRDRSHDRHLSPDVTGGSKTEQWQPDEGAVRTGTCCFNVKYLGSVEVYESRGMQVCEGALKSLKASRRKPVKAVLYVSGDGLRVVDQGNSRGLLVDQTIEKVSLCAPDRQTDKGFAYICRDGASRRWMCHGFLATKETGERLSHAVGCAFSICLEKKKRRDEETAQVNVQSAQESTSSTPPKDIFHPNWEDNTSEGTSTQNPSNSRSNLAYQSFRKHVSIEDRYLDPQSVIINEVPASNHMDEIRRISKPRPTGNPALFLRQGSLRAPPDMPSSSDQFKRNMSLRTVSNNPTERSPEKKSFGTQLYNEPIYEGDEDPLGLGITPPVVTKTSGSLSNNGLDGINLNWKSIPAPVHQMQQHNANGDFVAAWPQNTIEKPTVGPLDKLQKQFEDIKLISISSGENTPTTRSKADEWLDDVLRVSMSMSPTSPSSDPPSTSSYSVLPKSGPPPAHAPPPLPVRQAVSNGSPSIYQQQLQQANSTRNSPAGINWNSSPNPMKISQPPAKPVDPFDVQWSRLAVNNTH [F175L], the “effect of a mutation on the interaction” value is given as “decreasing interaction”.
